From article PMC6478713, “Structural insight into YcbB-mediated beta-lactam resistance in Escherichia coli” (Nature Communications, 2019)

Key:
[1] = molecular target: T1, Escherichia coli PBP1b from residue 58 onward, styrene-maleic acid co-polymer solubilised, fluorescently … (Escherichia coli, UniProt P02919 58-844, Alexa Fluor 647 NHS Ester label (sites not given)); assay: MST; Monolith NT.115Pico; unlabelled YcbB (1.5 nM-3.1 uM) titrated into Alexa Fluor 647-labelled SMA-solubilised PBP1b at 100 nM; Buffer C; analysed using fluorescence values; binding isotherm with adjustable Hill coefficient; conditions: both partners purified
T1 construct: Held in styrene-maleic acid co-polymer particles; Thrombin-cleavable tag; the purification paragraph calls the removed tag N-terminal, the cloning paragraph C-terminal; also called SMA-solubilised PBP1b; not shown: His8, C-terminal, cleaved
T1 sequence: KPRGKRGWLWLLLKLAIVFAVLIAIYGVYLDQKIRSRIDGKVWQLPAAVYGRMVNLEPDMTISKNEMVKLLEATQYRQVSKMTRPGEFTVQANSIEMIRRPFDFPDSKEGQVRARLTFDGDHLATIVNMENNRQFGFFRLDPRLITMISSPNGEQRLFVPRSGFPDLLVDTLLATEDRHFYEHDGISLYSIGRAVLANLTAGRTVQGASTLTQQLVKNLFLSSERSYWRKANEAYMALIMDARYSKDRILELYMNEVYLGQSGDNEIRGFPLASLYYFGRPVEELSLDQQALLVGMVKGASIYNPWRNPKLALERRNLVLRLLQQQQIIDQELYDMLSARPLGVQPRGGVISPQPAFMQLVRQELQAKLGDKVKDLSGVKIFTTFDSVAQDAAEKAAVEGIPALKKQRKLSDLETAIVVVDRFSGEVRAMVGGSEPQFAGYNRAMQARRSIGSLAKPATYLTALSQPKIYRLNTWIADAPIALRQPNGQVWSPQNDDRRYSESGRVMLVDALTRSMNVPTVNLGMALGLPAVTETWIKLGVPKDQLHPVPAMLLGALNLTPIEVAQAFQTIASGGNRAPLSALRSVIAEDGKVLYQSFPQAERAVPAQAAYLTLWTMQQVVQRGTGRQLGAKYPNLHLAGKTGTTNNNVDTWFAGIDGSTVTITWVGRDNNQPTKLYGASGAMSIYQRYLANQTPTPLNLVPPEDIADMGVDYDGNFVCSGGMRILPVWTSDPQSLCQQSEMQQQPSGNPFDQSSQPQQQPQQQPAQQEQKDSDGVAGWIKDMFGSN

[2] = molecular target: T2, Escherichia coli YcbB (residue 31 onward), fluorescently labelled with Alexa Fluor 647 (Escherichia coli, UniProt P22525 31-615, Alexa Fluor 647 NHS Ester label (sites not given)); assay: MST; Monolith NT.115Pico; unlabelled PBP5 (120 pM-98 uM) titrated into Alexa Fluor 647-labelled YcbB at 15 nM; Buffer C; analysed using MST; binding isotherm with adjustable Hill coefficient; conditions: both partners purified
T2 construct: L,D-transpeptidase YcbB (LdtD), E. coli, without its signal peptide (residues 1-30), residue 31 onward; Same construct as m1, labelled for the MST with PBP5; also called fluorescently labelled YcbB; source: E. coli BL21 (DE3), purified (HisTrap Ni2+, SEC Superdex 200), then labelled; not shown: His8, C-terminal, cleaved
T2 sequence: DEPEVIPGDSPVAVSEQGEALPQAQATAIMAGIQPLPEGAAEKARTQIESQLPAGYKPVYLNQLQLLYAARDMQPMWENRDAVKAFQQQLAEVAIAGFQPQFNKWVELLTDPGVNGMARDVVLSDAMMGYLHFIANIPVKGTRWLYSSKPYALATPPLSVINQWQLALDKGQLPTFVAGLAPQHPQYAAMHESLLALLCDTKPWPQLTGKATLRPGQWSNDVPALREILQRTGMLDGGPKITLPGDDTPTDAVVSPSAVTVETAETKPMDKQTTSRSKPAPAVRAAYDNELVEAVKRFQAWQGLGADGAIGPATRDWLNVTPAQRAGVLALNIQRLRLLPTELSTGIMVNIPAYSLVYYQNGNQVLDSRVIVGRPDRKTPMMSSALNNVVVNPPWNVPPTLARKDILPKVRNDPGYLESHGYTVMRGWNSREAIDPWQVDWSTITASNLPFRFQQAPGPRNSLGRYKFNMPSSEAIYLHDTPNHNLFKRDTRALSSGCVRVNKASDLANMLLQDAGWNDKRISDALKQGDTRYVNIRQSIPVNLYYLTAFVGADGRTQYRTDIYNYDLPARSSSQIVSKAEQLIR

B1: Escherichia coli YcbB without its signal peptide (residue 31 onward) (enzyme)
chain: T2 sequence
notes: L,D-transpeptidase YcbB (LdtD), E. coli, without its signal peptide (residues 1-30), residue 31 onward; Unlabelled form: titrant in the MST with PBP1b and the protein that was crystallised (there acylated by meropenem on Cys528); Vector named pET41b-GST; no GST on the protein is spoken of; Thrombin-cleavable tag; the purification paragraph calls the removed tag N-terminal, the cloning paragraph …
- Kd [1]: 0.25 ± 0.03 µM

B2: Escherichia coli PBP5 from residue 30 onward (enzyme)
chain: DDLNIKTMIPGVPQIDAESYILIDYNSGKVLAEQNADVRRDPASLTKMMTSYVIGQAMKAGKFKETDLVTIGNDAWATGNPVFKGSSLMFLKPGMQVPVSQLIRGINLQSGNDACVAMADFAAGSQDAFVGLMNSYVNALGLKNTHFQTVHGLDADGQYSSARDMALIGQALIRDVPNEYSIYKEKEFTFNGIRQLNRNGLLWDNSLNVDGIKTGHTDKAGYNLVASATEGQMRLISAVMGGRTFKGREAESKKLLTWGFRFFETVNPLKVGKEFASEPVWFGDSDRASLGVDKDVYLTIPRGRMKDLKASYVLNSSELHAPLQKNQVVGTINFQLDGKTIEQRPLVVLQEIPEGNFFGKIIDYIKLMFHHWFG
notes: HRV 3C protease-cleavable tag; the purification paragraph calls the removed tag N-terminal, the cloning paragraph C-terminal; also called D,D-carboxypeptidase PBP5; source: E. coli BL21 (DE3), purified (HisTrap Ni2+, SEC Superdex 200); not shown: His8, C-terminal, cleaved
- Kd [2]: ~2 µM
